T1: human CDH6 on tumor cells (OVCAR3 cells, PA-1 cells) (human, UniProt P55285 54-790)
T1 sequence: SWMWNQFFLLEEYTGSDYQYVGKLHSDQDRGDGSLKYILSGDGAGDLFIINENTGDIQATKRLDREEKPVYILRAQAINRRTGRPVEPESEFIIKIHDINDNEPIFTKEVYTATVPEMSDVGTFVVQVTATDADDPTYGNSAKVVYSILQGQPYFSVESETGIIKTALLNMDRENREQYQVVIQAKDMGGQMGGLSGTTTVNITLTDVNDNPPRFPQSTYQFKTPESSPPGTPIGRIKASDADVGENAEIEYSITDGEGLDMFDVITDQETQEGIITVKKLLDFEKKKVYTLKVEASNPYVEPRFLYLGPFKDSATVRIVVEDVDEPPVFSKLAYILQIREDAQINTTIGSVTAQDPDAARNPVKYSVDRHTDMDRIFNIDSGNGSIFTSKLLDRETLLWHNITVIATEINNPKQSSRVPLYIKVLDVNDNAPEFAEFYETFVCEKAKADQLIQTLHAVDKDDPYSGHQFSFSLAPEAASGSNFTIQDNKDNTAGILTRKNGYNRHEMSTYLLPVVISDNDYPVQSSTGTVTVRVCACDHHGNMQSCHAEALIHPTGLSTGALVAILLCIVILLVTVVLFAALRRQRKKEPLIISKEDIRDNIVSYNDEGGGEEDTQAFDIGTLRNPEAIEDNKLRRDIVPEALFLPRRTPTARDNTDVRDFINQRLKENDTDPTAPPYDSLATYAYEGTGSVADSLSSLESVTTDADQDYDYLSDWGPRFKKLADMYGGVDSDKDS

T2: his-tagged human CDH6 extracellular region protein (hCDH6 ECD-his) (human, UniProt P55285 19-615)
T2 construct: also called Human CDH6-his; hCDH6-his; not shown: his tag
T2 sequence: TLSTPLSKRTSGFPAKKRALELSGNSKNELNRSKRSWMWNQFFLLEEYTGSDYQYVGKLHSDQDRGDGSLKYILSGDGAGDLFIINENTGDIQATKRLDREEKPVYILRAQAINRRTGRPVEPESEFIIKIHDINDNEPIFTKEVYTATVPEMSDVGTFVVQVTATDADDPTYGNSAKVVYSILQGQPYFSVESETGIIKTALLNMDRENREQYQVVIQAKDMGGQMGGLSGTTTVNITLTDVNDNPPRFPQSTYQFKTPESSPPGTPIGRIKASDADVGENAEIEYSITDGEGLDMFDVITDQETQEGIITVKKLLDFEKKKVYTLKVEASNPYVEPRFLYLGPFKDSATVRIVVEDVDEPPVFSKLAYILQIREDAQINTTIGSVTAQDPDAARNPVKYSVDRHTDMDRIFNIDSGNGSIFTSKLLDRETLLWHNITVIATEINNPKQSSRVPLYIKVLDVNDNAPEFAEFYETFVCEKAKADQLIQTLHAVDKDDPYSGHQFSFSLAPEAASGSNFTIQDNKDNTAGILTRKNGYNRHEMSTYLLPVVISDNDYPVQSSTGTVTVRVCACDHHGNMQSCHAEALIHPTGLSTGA


Key:
[1] = biological target: T1, human CDH6 on tumor cells (OVCAR3 …); assay: FACS, PA-1 cells
Experimental: OVCAR3 cells with high expression of CDH6 and PA-1 cells with moderate expression of CDH6 were used to detect the binding activity of the antibodies to the cells. […] The cells were washed once with PBS, counted, resuspended to 2×10⁶ cells/mL in an FACS buffer (PBS+2% FBS), and then added to a 96-well plate at 50 μL/well. The chimeric antibodies were diluted with FACS buffer (PBS+2% FBS) and added to the 96-well plate at 50 μL/well, and the plate was incubated at 4° C. for 1 h. […] The dilution was added to the 96-well plate at 50 μL/well, and the plate was incubated at 4° C. for 1 h. After the plates were centrifuged and washed 2 times with PBS, the cells were resuspended in an FACS buffer. The mean fluorescence intensity (MFI) was measured using FACS Canton II (BD). Analysis was performed by the GraphPad Prism software, data were fitted, and EC50 values were calculated. The chimeric antibodies tested had strong binding to both OVCAR3 cells and PA-1 cells.
According to the above sequences, heavy chain (HC) and light chain (LC) plasmids were constructed (the nucleic acid sequences encoding the VH and VL of the antibodies were recombined into an expression vector carrying a signal peptide (SEQ ID NO: 132, […]) and a heavy chain constant region/light chain constant region sequence to obtain recombinant plasmids expressing VH-CH1-Fc/VL-CL). According to the expression and purification methods in Example 2, the hCDH6-14 humanized antibodies were obtained, and the binding activity of the humanized antibodies was detected by ELISA and FACS (see 2.2 and 2.3 for the method).

[2] = biological target: T2, his-tagged human CDH6 extracellular …; assay: ELISA, coated antigen
Experimental: Human CDH6 protein (hCDH6 ECD-his, conventionally synthesized), monkey CDH6 protein (cynoCDH6 ECD-his, conventionally synthesized; the cynoCDH6 ECD sequence was derived from Uniprot #A0A2K5TW62 (19-615)), and murine CDH6 protein (mCDH6 ECD-his, conventionally synthesized; the mCDH6 ECD sequence was derived from Uniprot #P97326 (19-615)) were diluted with PBS to a final concentration of 1 μg/mL, and added to a 96-well ELISA plate at 100 μL/well. The plate was incubated at 4° C. overnight. The next day, the plate was washed 3 times with a plate washing solution (PBS+0.01% (v/v) Tween 20), and a blocking buffer (PBS+0.01% (v/v) Tween 20+2% (w/w) BSA) was added for blocking at room temperature for 2 h. The blocking buffer was discarded, and the plate was washed 3 times. The chimeric antibodies were diluted with 1% BSA+PBS (purchased from Cytiva, Cat. No. SH30264.01) and added to the 96-well plate at 50 μL/well. After incubation at 37° C. for 2 h, the plate was washed 3 times with a plate washing solution. […] The plate was incubated at 37° C. for 1 h and then washed 5 times with a plate washing solution. A TMB substrate (purchased from Seracare, Cat. No. 5120-0077) was added at 50 μL/well and incubated at room temperature for 10 min, then a stop solution (1.0 N HCl) was added at 50 μL/well. OD450 nm values were read using a microplate reader (Biotek). Analysis was performed by the GraphPad Prism software, data were fitted, and EC50 values were calculated. The chimeric antibodies tested all had strong binding to the human CDH6 protein, the monkey CDH6 protein, and the murine CDH6 protein.
According to the above sequences, heavy chain (HC) and light chain (LC) plasmids were constructed (the nucleic acid sequences encoding the VH and VL of the antibodies were recombined into an expression vector carrying a signal peptide (SEQ ID NO: 132, […]) and a heavy chain constant region/light chain constant region sequence to obtain recombinant plasmids expressing VH-CH1-Fc/VL-CL).

Binder | EC50 [1] [nM] | Max MFI [1] [MFI] | EC50 [2] [nM] | Max OD450 [2] [OD450]
hCDH6-14-H1L1 (antibody, V domains shown, Humanized) VH: EVQLVQSGAEVKKPGASVKVSCKASGYTFTDNYINWVRQAPGQRLEWMGWIYPGTGNSYYNEKFKGRVTITVDTSASTAYMELSSLRSEDTAVYYCASSYGDSFDYWGQGTTVTVSS VL: DIQMTQSPSSLSASVGDRVTITCRASQDIRNYLNWYQQKPGKAFKLLISYTSRLHSGVPSRFSGSGSGTDFTFTISSLQPEDIATYYCQQYSQLPWTFGGGTKVEIK | 0.26 | 3680 | 0.059 | 2.69
hCDH6-14-H5L2 (antibody, V domains shown, Humanized) VH: EVQLQQSGAEVKKPGASVKVSCKASGYTFTDNYINWVRQAPGQRLEWMGWIYPGTGNSYYNEKFKGRVTITVDTSASTAYMELSSLRSEDTAVYYCASSYGDSFDYWGQGTTVTVSS VL: DIQMTQSPSSLSASVGDRVTITCRASQDIRNYLNWYQQKPGGAPKLLISYTSRLHSGVPSRFSGSGSGTDFTFTISSLQPEDIATYYCQQYSQLPWTFGGGTKVEIK | 0.23 | 3320 | 0.109 | 2.58
hCDH6-14-H2L1 (antibody, V domains shown, Humanized) VH: EIQLVQSGAEVKKPGASVKVSCKASGYTFTDNYINWVRQAPGQRLEWMGWIYPGTGNSYYNEKFKGRVTITVDTSASTAYMELSSLRSEDTAVYYCASSYGDSFDYWGQGTTVTVSS VL: DIQMTQSPSSLSASVGDRVTITCRASQDIRNYLNWYQQKPGKAFKLLISYTSRLHSGVPSRFSGSGSGTDFTFTISSLQPEDIATYYCQQYSQLPWTFGGGTKVEIK | 0.25 | 3560 | 0.076 | 2.65
hCDH6-14-H1L2 (antibody, V domains shown, Humanized) VH: EVQLVQSGAEVKKPGASVKVSCKASGYTFTDNYINWVRQAPGQRLEWMGWIYPGTGNSYYNEKFKGRVTITVDTSASTAYMELSSLRSEDTAVYYCASSYGDSFDYWGQGTTVTVSS VL: DIQMTQSPSSLSASVGDRVTITCRASQDIRNYLNWYQQKPGGAPKLLISYTSRLHSGVPSRFSGSGSGTDFTFTISSLQPEDIATYYCQQYSQLPWTFGGGTKVEIK | 0.22 | 3600 | 0.128 | 2.84

Continued by falling EC50 [1], values first:

EC50 [1] [nM] | Max MFI [1] [MFI] | EC50 [2] [nM] | Max OD450 [2] [OD450] | Binder
0.27 | 3930 | 0.098 | 2.54 | hCDH6-14-H2L2 (antibody, V domains shown, Humanized) VH: EIQLVQSGAEVKKPGASVKVSCKASGYTFTDNYINWVRQAPGQRLEWMGWIYPGTGNSYYNEKFKGRVTITVDTSASTAYMELSSLRSEDTAVYYCASSYGDSFDYWGQGTTVTVSS VL: DIQMTQSPSSLSASVGDRVTITCRASQDIRNYLNWYQQKPGGAPKLLISYTSRLHSGVPSRFSGSGSGTDFTFTISSLQPEDIATYYCQQYSQLPWTFGGGTKVEIK
0.26 | 3490 | 0.096 | 2.62 | hCDH6-14-H3L1 (antibody, V domains shown, Humanized) VH: EIQLVQSGAEVKKPGASVKVSCKASGYTFTDNYINWVRQAPGQRLEWMGWIYPGTGNSYYNEKFKGRVTLTVDTSASTAYMELSSLRSEDTAVYYCASSYGDSFDYWGQGTTVTVSS VL: DIQMTQSPSSLSASVGDRVTITCRASQDIRNYLNWYQQKPGKAFKLLISYTSRLHSGVPSRFSGSGSGTDFTFTISSLQPEDIATYYCQQYSQLPWTFGGGTKVEIK
0.26 | 3570 | 0.089 | 2.64 | hCDH6-14-H4L2 (antibody, V domains shown, Humanized) VH: EVQLVQSGAEVKKPGASVKVSCKASGYTFTDNYINWVRQAPGQGLEWMGWIYPGTGNSYYNEKFKGRVTITVDTSASTAYMELSSLRSEDTAVYYCASSYGDSFDYWGQGTTVTVSS VL: DIQMTQSPSSLSASVGDRVTITCRASQDIRNYLNWYQQKPGGAPKLLISYTSRLHSGVPSRFSGSGSGTDFTFTISSLQPEDIATYYCQQYSQLPWTFGGGTKVEIK
0.25 | 3820 | 0.052 | 2.62 | hCDH6-14-H4L1 (antibody, V domains shown, Humanized) VH: EVQLVQSGAEVKKPGASVKVSCKASGYTFTDNYINWVRQAPGQGLEWMGWIYPGTGNSYYNEKFKGRVTITVDTSASTAYMELSSLRSEDTAVYYCASSYGDSFDYWGQGTTVTVSS VL: DIQMTQSPSSLSASVGDRVTITCRASQDIRNYLNWYQQKPGKAFKLLISYTSRLHSGVPSRFSGSGSGTDFTFTISSLQPEDIATYYCQQYSQLPWTFGGGTKVEIK
0.25 | 3780 | 0.079 | 2.81 | hCDH6-14-H5L1 (antibody, V domains shown, Humanized) VH: EVQLQQSGAEVKKPGASVKVSCKASGYTFTDNYINWVRQAPGQRLEWMGWIYPGTGNSYYNEKFKGRVTITVDTSASTAYMELSSLRSEDTAVYYCASSYGDSFDYWGQGTTVTVSS VL: DIQMTQSPSSLSASVGDRVTITCRASQDIRNYLNWYQQKPGKAFKLLISYTSRLHSGVPSRFSGSGSGTDFTFTISSLQPEDIATYYCQQYSQLPWTFGGGTKVEIK
0.23 | 3490 | 0.074 | 2.63 | hCDH6-14-H3L2 (antibody, V domains shown, Humanized) VH: EIQLVQSGAEVKKPGASVKVSCKASGYTFTDNYINWVRQAPGQRLEWMGWIYPGTGNSYYNEKFKGRVTLTVDTSASTAYMELSSLRSEDTAVYYCASSYGDSFDYWGQGTTVTVSS VL: DIQMTQSPSSLSASVGDRVTITCRASQDIRNYLNWYQQKPGGAPKLLISYTSRLHSGVPSRFSGSGSGTDFTFTISSLQPEDIATYYCQQYSQLPWTFGGGTKVEIK
